Source: patent publication EP4534102A1, “ANTIBODY DRUG CONJUGATE (ADC) TARGETING NECTIN 4 AND COMPRISING AN EXATECAN PAYLOAD” (Eli Lilly and Company, priority 2023, dated 2025)

Assay: Aggregation by SEC-HPLC
Type: physicochemical
Method: As determined by SEC-HPLC, less than 5% material was aggregated. […] (See Figure 2 and corresponding Brief Description). […] (See Figure 3 and corresponding Brief Description). In vitro cytotoxic activity was assessed for the HCT-116-2G10 clone expressing human nectin-4. (See Figure 4 and corresponding Brief Description).
As a comparator ADC, the HA22 anti-Nectin-4 mAb was conjugated to maleimidocaproyl-valine-citrulline-PABC-MMAE to generate enfortumab vedotin. Briefly, a 15 mg/mL solution of the HA22 in 10 mM acetate 1% sorbitol, 3% L-arginine, pH 5.0 was supplemented with a 20% volume of 0.1 M Tris, 25 mM EDTA and 750 mM NaCl, pH 8.4 to adjust the pH of the solution to 7.5, 5 mM EDTA and 150 mM sodium chloride. […] The mixture was stirred for 60 minutes at 5° C, then for 15 additional minutes following the addition of 1 molar equivalents of N-acetylcysteine relative to cysteine reactive linker-MMAE compound. Excess quenched cysteine reactive linker-payload and other reaction components were removed by ultrafiltration/diafiltration of the antibody drug conjugate (ADC) with 10 volumes of 20 mM histidine, pH 6.0. The drug-antibody ratio (DAR) according to LC-MS analysis was 3.79 toxins per conjugated mAb. As determined by SEC-HPLC, less than 1% material was aggregated.

## enfortumab vedotin: HA22 anti-Nectin-4 mAb conjugated to maleimidocaproyl-valine-citrulline-PABC-MMAE; comparator ADC
  material aggregated: less than 1%
